This assay deals with fluorescently labelled UDP-peptide bisubstrate conjugate. Briefly: fluorescence polarisation; increasing concentrations of OGT titrated against a fixed concentration of the fluorescent probe; 0.1 M Tris/HCl pH 7.5, 0.15 M NaCl, 0.5 mM TCEP, 5% DMSO; 30 min in the dark. (In general: Polarisation of emitted light reports the rotation of a fluorescent probe.)

B1: O-GlcNAc transferase, truncated wild type (catalytic domain and 3.5 TPR repeats, residues 323-1044) (enzyme)
chain: CPTHADSLNNLANIKREQGNIEEAVRLYRKALEVFPEFAAAHSNLASVLQQQGKLQEALMHYKEAIRISPTFADAYSNMGNTLKEMQDVQGALQCYTRAIQINPAFADAHSNLASIHKDSGNIPEAIASYRTALKLKPDFPDAYCNLAHCLQIVCDWTDYDERMKKLVSIVADQLEKNRLPSVHPHHSMLYPLSHGFRKAIAERHGNLCLDKINVLHKPPYEHPKDLKLSDGRLRVGYVSSDFGNHPTSHLMQSIPGMHNPDKFEVFCYALSPDDGTNFRVKVMAEANHFIDLSQIPCNGKAADRIHQDGIHILVNMNGYTKGARNELFALRPAPIQAMWLGYPGTSGALFMDYIITDQETSPAEVAEQYSEKLAYMPHTFFIGDHANMFPHLKKKAVIDFKSNGHIYDNRIVLNGIDLKAFLDSLPDVKIVKMKCPDGGDNADSSNTALNMPVIPMNTIAEAVIEMINRGQIQITINGFSISNGLATTQINNKAATGEEVPRTIIVTTRSQYGLPEDAIVYCNFNQLYKIDPSTLQMWANILKRVPNSVLWLLRFPAVGEPNIQQYAQNMGLPQNRIIFSPVAPKEEHVRRGQLADVCLDTPLCNGHTTGMDVLWAGTPMVTMPGETLASRVAASQLTCLGCLELIAKNRQEYEDIAVKLGTDLEYLKKVRGKVWKQRISSPLFNTKQYTMELERLYLQMWEHYAAGNKPDHMIKPVEVTE
The term Kd denotes the concentration at which binding is half-saturated. A high value points to a looser complex. B1 returned a Kd of 1.6 µM.

B2: O-GlcNAc transferase N648Y, truncated (catalytic domain and 3.5 TPR repeats, residues 323-1044) (enzyme)
chain: CPTHADSLNNLANIKREQGNIEEAVRLYRKALEVFPEFAAAHSNLASVLQQQGKLQEALMHYKEAIRISPTFADAYSNMGNTLKEMQDVQGALQCYTRAIQINPAFADAHSNLASIHKDSGNIPEAIASYRTALKLKPDFPDAYCNLAHCLQIVCDWTDYDERMKKLVSIVADQLEKNRLPSVHPHHSMLYPLSHGFRKAIAERHGNLCLDKINVLHKPPYEHPKDLKLSDGRLRVGYVSSDFGNHPTSHLMQSIPGMHNPDKFEVFCYALSPDDGTNFRVKVMAEANHFIDLSQIPCNGKAADRIHQDGIHILVNMNGYTKGARYELFALRPAPIQAMWLGYPGTSGALFMDYIITDQETSPAEVAEQYSEKLAYMPHTFFIGDHANMFPHLKKKAVIDFKSNGHIYDNRIVLNGIDLKAFLDSLPDVKIVKMKCPDGGDNADSSNTALNMPVIPMNTIAEAVIEMINRGQIQITINGFSISNGLATTQINNKAATGEEVPRTIIVTTRSQYGLPEDAIVYCNFNQLYKIDPSTLQMWANILKRVPNSVLWLLRFPAVGEPNIQQYAQNMGLPQNRIIFSPVAPKEEHVRRGQLADVCLDTPLCNGHTTGMDVLWAGTPMVTMPGETLASRVAASQLTCLGCLELIAKNRQEYEDIAVKLGTDLEYLKKVRGKVWKQRISSPLFNTKQYTMELERLYLQMWEHYAAGNKPDHMIKPVEVTE
Turning to B2, the Kd turned out to be 11 µM.

The record behind these values is PMC7042088.
